Reference: patent US20160264649A1

How the values were obtained:
Test in all cases: cell-based or functional assay
[1] = target: HIV-1 92RW021 Env (HIV-1)
[2] = target: HIV-1 MGRM-A-009 Env (HIV-1)
[3] = target: HIV-1 MGRM-A-006 Env (HIV-1)
HIV-1 VLGCA1 Env (HIV-1) = target: HIV-1 VLGCA1 Env (HIV-1)
[4] = target: HIV-1 MGRM-A-010 Env (HIV-1)
[5] = target: HIV-1 MGRM-A-007 Env (HIV-1)
[6] = target: HIV-1 MGRM-A-003 Env (HIV-1)
[7] = target: HIV-1 MGRM-A-002 Env (HIV-1)
[8] = target: HIV-1 93RW029 Env (HIV-1)
[9] = target: HIV-1 92RW008 Env (HIV-1)
[10] = target: HIV-1 MGRM-A-011 Env (HIV-1)
[11] = target: HIV-1 94KE105 Env (HIV-1)
[12] = target: HIV-1 94UG103 Env (HIV-1)
[13] = target: HIV-1 MGRM-A-014 Env (HIV-1)
[14] = target: HIV-1 92UG037 Env (HIV-1)
[15] = target: HIV-1 92RW024 Env (HIV-1)
[16] = target: HIV-1 MGRM-A-013 Env (HIV-1)
[17] = target: HIV-1 93UG077 Env (HIV-1)
[18] = target: HIV-1 92RW020 Env (HIV-1)
[19] = target: HIV-1 92RW026 Env (HIV-1)
[20] = target: HIV-1 92UG031 Env (HIV-1)
[21] = target: HIV-1 92RW009 Env (HIV-1)

Sequence of 1443_C16 (PG16) (TCN-116) (antibody) (VH): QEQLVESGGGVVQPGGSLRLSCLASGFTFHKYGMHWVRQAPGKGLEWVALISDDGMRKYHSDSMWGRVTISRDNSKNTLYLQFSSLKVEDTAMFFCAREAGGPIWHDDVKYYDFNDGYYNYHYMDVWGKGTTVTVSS
Sequence of 1443_C16 (PG16) (TCN-116) (antibody) (VL): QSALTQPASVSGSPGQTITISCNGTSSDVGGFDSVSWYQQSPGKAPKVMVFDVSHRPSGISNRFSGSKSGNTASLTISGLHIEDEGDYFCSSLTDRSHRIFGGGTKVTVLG

| Substance | neutralization IC50 [1] | neutralization IC50 [2] | neutralization IC50 [3] | neutralization IC50 (HIV-1 VLGCA1 Env (HIV-1)) | neutralization IC50 [4] | neutralization IC50 [5] | neutralization IC50 [6] | neutralization IC50 [7] | neutralization IC50 [8] | neutralization IC50 [9] | neutralization IC50 [10] | neutralization IC50 [11] | neutralization IC50 [12] | neutralization IC50 [13] | neutralization IC50 [14] | neutralization IC50 [15] | neutralization IC50 [16] | neutralization IC50 [17] | neutralization IC50 [18] | neutralization IC50 [19] | other results |
| --- | --- | --- | --- | --- | --- | --- | --- | --- | --- | --- | --- | --- | --- | --- | --- | --- | --- | --- | --- | --- | --- |
| 4E10 (antibody) | 4.87 µg/mL | 12 µg/mL | 9.87 µg/mL | 4.58 µg/mL | 14.4 µg/mL | 1.82 µg/mL | 5.94 µg/mL | 6.45 µg/mL | 15.5 µg/mL | 14.5 µg/mL | 2.88 µg/mL | 7.63 µg/mL | 4.97 µg/mL | 1.74 µg/mL | 8.84 µg/mL | 8.88 µg/mL | 1.46 µg/mL | 10.6 µg/mL | 4.54 µg/mL | 12.9 µg/mL | neutralization IC50 [20]: 4.94 µg/mL; neutralization IC50 [21]: > 50 µg/mL |
| 1443_C16 (PG16) (TCN-116) (antibody) | 0.11 µg/mL | 0.01 µg/mL | > 50 µg/mL | 0.18 µg/mL | 0.004 µg/mL | 5.91 µg/mL | 2.65 µg/mL | 0.004 µg/mL | 3.83 µg/mL | 0.002 µg/mL | 0.24 µg/mL | 6.13 µg/mL | 0.04 µg/mL | 20.3 µg/mL | 0.01 µg/mL | 0.08 µg/mL | 0.09 µg/mL | > 50 µg/mL | 0.28 µg/mL | 0.03 µg/mL | neutralization IC50 [20]: 0.43 µg/mL; neutralization IC50 [21]: 0.11 µg/mL |
